Biological target: T1, HLA-A*02:01 (human)
T1 construct: MHC monomers first loaded with a UV-sensitive peptide (not identified) that is cleaved and exchanged for the test peptide; captured on streptavidin-coated plates and detected with anti-β2m; also called peptide-receptive MHC molecules; MHC class I
Experiment: UV-ligand exchange, anti-b2m ELISA; peptide exchange yield grade
From the text: Candidate peptides for T cell based therapies according to the present invention were further tested for their MHC binding capacity (affinity). The individual peptide-MHC complexes were produced by UV-ligand exchange, where a UV-sensitive peptide is cleaved upon UV-irradiation and exchanged with the peptide of interest as analyzed. Only peptide candidates that can effectively bind and stabilize the peptide-receptive MHC molecules prevent dissociation of the MHC complexes. To determine the yield of the exchange reaction, an ELISA was performed based on the detection of the light chain (β2m) of stabilized MHC complexes. The assay was performed as generally described in Rodenko et al. (Rodenko et al., 2006).
96 well MAXISorp plates (NUNC) were coated over night with 2 μg/ml streptavidin in PBS at room temperature, washed 4× and blocked for 1 h at 37° C. in 2% BSA containing blocking buffer. Refolded HLA-A*02:01/MLA-001 monomers served as standards, covering the range of 15-500 ng/ml. Peptide-MHC monomers of the UV-exchange reaction were diluted 100-fold in blocking buffer. Samples were incubated for 1 h at 37° C., washed four times, incubated with 2 μg/ml HRP conjugated anti-β2m for 1h at 37° C., washed again and detected with TMB solution that is stopped with […]. Absorption was measured at 450 nm. Candidate peptides that show a high exchange yield (preferably higher than 50%, most preferred higher than 75%) are generally preferred for a generation and production of antibodies or fragments thereof, and/or T cell receptors or fragments thereof, as they show sufficient avidity to the MHC molecules and prevent dissociation of the MHC complexes.

Binder | peptide exchange yield
LLDTTDVYL | 50 to 75%
RLQDTTIGL | ≥ 75%
SLLDENDVSSYL | ≥ 75%
ALADLTGTV | ≥ 75%
SMASFLKDV | ≥ 75%
YLGAVFDL | ≥ 75%
ALDSTNSEL | ≥ 75%
ALMDVSQNV | ≥ 75%
KILDFTGPLFL | ≥ 75%
KLHDTSFCL | ≥ 75%
SLLRDFTLV | ≥ 75%
YLHGFDLSL | ≥ 75%
AIDQTITEA | 50 to 75%
ALAGLVYDA | ≥ 75%
KLAPDLTEL | 50 to 75%
ALDSSLQLL | ≥ 75%
AVDKTQTSV | 50 to 75%
FLNPDGSDCTL | ≥ 75%
FLNVDVSEV | ≥ 75%
KMLDETVLV | 50 to 75%
LLDITNPVL | ≥ 75%
NLADNTILV | ≥ 75%
NMYDLTFHV | ≥ 75%
RLLDETVDVTI | ≥ 75%
SLFIDVTRV | ≥ 75%
SLDDSLNEL | 50 to 75%
VLDGTEVNL | ≥ 75%
VLKDGTLVI | 20 to 50%
YLADFSHAT | ≥ 75%
YLDGTFRLL | 50 to 75%

Reference: patent publication US20220111022A1 (IMMATICS BIOTECHNOLOGIES, published 2022)
